US20260042827A1 (UNIVERSITY HEALTH NETWORK, published 2026)
One block for each binder: values may come before it.

Experiments:
WT1330-348 = biological target: T1, WT1330-348; test: biolayer interferometry (Octet Red96), biotinylated peptide on streptavidin tips, 5H2 in solution, steady state fit with 1:1 model
T1 construct: also called WT1 peptide
T1 peptide: CNKRYFKLSHLQMHSRKHT

[1] = biological target: T2, WT1330-348 presented by DP4 on K562 cells (human, UniProt P20036 29-260; P04440 30-258); test: flow cytometry on peptide-pulsed K562 transfectants, PE anti-mouse secondary
T2 construct: whole, on cells; Exogenously pulsed peptide

[2] = biological target: T3, WT1330-348 presented by DP2 on K562 cells (human, UniProt P20036 29-260; P04440 30-258); test: as above
T3 construct: whole, on cells; Exogenously pulsed peptide
T3 MHC II alpha: not shown
T3 MHC II beta: not shown
T3 peptide: CNKRYFKLSHLQMHSRKHT

[3] = biological target: T4, WT1330-348 presented by DP5 on K562 cells (human, UniProt P20036 29-260; P04440 30-258); test: as above
T4 construct: whole, on cells; Exogenously pulsed peptide
T4 MHC II alpha: not shown
T4 MHC II beta: not shown
T4 peptide: CNKRYFKLSHLQMHSRKHT

HLA-DP4 [4] = biological target: T5, HLA-DP4 (human, UniProt P20036 29-222; P04440 30-225, limits assumed); test: cell-based competitive binding assay on T2/DP4 cells, graded WT1328-348 against reference peptide Oxy271-287
T5 construct: whole, on cells; also called T2/DP4
T5 sequence (P20036 29-222 limits assumed, chain 1 of 4, other chains not shown): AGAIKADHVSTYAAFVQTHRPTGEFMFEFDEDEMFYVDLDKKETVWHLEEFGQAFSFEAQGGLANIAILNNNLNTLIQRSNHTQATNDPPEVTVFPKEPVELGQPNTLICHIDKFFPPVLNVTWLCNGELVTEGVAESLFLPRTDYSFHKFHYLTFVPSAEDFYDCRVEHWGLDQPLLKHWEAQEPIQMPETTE
T5 sequence (P04440 30-225 limits assumed, chain 2 of 4, other chains not shown): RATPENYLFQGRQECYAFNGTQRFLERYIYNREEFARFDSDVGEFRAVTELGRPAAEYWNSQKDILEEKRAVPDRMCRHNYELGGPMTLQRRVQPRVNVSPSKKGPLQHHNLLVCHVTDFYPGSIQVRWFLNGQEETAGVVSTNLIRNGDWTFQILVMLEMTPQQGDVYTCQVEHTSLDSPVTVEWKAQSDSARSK

HLA-DP2 = biological target: T6, HLA-DP2 (human, UniProt P20036 29-222; P04440 30-225, limits assumed); test: cell-based competitive binding assay on T2/DP2 cells, reference peptide Oxy271-287
T6 construct: whole, on cells; also called T2 cells transduced with DP2
T6 MHC II alpha: not shown
T6 MHC II beta: not shown

HLA-DP4 [5] = biological target: T5, HLA-DP4; test: cell-based competitive binding assay on T2/DP4 cells, reference peptide Oxy271-287

- Kd (WT1330-348): ~0.05 µM
- binding result [1]: binds
- binding result [2]: binds
- binding result [3]: binds
B1: WT1-specific mAb, 5H2 (antibody, V domains shown)
VH: EVQLQQSGAELVRPGALVKLSCKASGFNIKDYYMHWVKQRPEQGLEWIGWIDPENGNTIYDPKFQGKASITADTSSNTAYLQLSSLTSGDTAVYYCTRDGYYMVFAYWGQGTLVTVSA
VL: DIQMTQSPSSLSASLGGKVTITCKASQDINKCIAWYKHKPGKGPRLLIHYTSILQPGIPSRFSGSGSGRDYSFSISNLEPEDIATYYCLQYDNLYTFGGGTKLEIK
notes: also called clone 5H2; 5H2 mAb

- binding result (HLA-DP4 [4]): binds
Binder: PGCNKRYFKLSHLQMHSRKHT (also called 21-mer peptide) [WT1328-348]

B2: WT1235-243 (peptide)
peptide: CMTWNQMNL
notes: Negative control peptide; also called HLA-A2 restricted peptide
- binding result (HLA-DP2): no binding (tested: any tested concentration)
- binding result (HLA-DP4 [5]): no binding (tested: any tested concentration)
